The source of these data is patent US20190382481A1 (Janssen / Centocor, published 2019).

Test [1] addresses T1, Human CD33-C2-HSA (human).
T1 construct: C2 domain of human CD33 fused to HSA (C58S) and six-histidine tag; also called C33W4; huCD33-C2-HSA
Description: SPRi off-rate screen, domain constructs.

Test [2] has as its target T2, Human CD33-V-HSA (human).
T2 construct: V domain of human CD33 fused to HSA (C58S) and six-histidine tag; also called C33W3; huCD33-V-HSA
Description: SPRi off-rate screen, domain constructs.

Test [3] deals with T3, Human CD33-C2-HSA (human).
T3 construct: C2 domain of human CD33 fused to HSA; also called C33W4; huCD33-C2-HSA
Description: IBIS SPRi off-rate screen.

For test [4], the target named is T4, Human CD33-V-HSA (human).
T4 construct: V domain of human CD33 fused to HSA; also called C33W3; huCD33-V-HSA
Description: IBIS SPRi off-rate screen.

Test [5] concerns the target T5, Cyno CD33 full length (over-expressed on transduced HEK293F / HEK 293T cells) (cyno).
T5 construct: also called cyCD33; cyno CD33 expressing cells
Description: flow cytometry, HEK293F cells expressing cyno CD33. The procedure:
(§1) The purified antibodies were assessed for binding to stably transfected HEK293F cells expressing human CD33 or cyno CD33 (generation described above) along with the parental HEK293F as negative control. Cells were harvested from tissue culture flasks using non-enzymatic dissociation buffer (Thermo Scientific). The flasks were rinsed twice with PBS and dissociation buffer was added to the flask, and the flask was incubated for 10 minutes at 37° C. until the cells became non-adherent. The cells were centrifuged at 300 g for 5 minutes and resuspended at 1.0×10⁶ cells/ml in staining buffer (Becton Dickinson; Franklin Lakes, N.J.). 50,000 cells/well of each cell type was plated in 50 μl of staining buffer in round bottom plates (Becton Dickinson). 50 μl of 2× concentration test mAb or isotype control was added at 3 dilutions and zero (120 nM, 12 nM, and 1.2 nM and 0 nM), and the resultant solution was incubated 30 min at 4° C. […] 30 ul running buffer containing Sytox Green live/dead dye (ThermoFisher) was added to all wells with cells and the plates were read on an iQue IntelliCyt flow cytometer. […] Antibody binding was assessed by the mean fluorescence intensity in the AF647 channel. […]

In test [6] the target is T6, Human CD33 full length (over-expressed on transduced HEK293F cells) (human, UniProt P20138 18-364).
T6 construct: also called huCD33; human CD33 expressing cells
Description: flow cytometry, HEK293F cells expressing human CD33. Here is the method: as §1
A general note: A flow cytometer gives signals particle by particle.

Test [7] concerns the target cynomologous (cyno) rCD33 (cyno). The test is described as follows: method not stated.
Test [8] deals with T7, human recombinant (r)CD33 (human, UniProt P20138 18-259).
T7 construct: also called human rCD33
Description: method not stated.

The target in another test is T8, cyno monkey rCD3e (cyno monkey, UniProt Q95LI5 22-117, limits assumed).
T8 construct: also called cyno recombinant CD3 epsilon
T8 sequence (looked up): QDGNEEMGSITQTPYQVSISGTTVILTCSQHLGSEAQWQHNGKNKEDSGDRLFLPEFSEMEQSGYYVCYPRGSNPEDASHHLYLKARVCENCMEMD
The test is described as follows: method not stated.

The target of another test is T9, human rCD3e (human, UniProt P07766 23-126).
T9 construct: also called human recombinant CD3 epsilon
Description: method not stated.

The target in test [9] is CD33 on human CD33 expressing AML cell lines and primary human cells (endogenous) (human, UniProt P20138 18-364). Description: cell-based or functional assay.
Another test addresses human CD33 (human, UniProt P20138 18-364). The test is described as follows: cell-based or functional assay.

CD33 on human CD33 expressing AML cell lines and primary human cells (endogenous), sequence (P20138 18-364 limits assumed): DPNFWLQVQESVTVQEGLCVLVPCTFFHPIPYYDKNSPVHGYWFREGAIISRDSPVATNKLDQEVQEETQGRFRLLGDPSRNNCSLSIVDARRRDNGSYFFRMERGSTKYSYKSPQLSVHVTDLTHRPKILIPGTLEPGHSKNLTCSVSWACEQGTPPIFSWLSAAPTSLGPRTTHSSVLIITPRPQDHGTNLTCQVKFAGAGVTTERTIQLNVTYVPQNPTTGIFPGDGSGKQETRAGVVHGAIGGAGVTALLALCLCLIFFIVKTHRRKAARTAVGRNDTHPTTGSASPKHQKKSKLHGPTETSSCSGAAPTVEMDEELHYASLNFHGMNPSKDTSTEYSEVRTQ
T9 sequence (P07766 23-126 limits assumed): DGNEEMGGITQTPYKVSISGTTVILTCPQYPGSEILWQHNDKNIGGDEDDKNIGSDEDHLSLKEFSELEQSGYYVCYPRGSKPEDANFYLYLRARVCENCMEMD
human CD33, sequence (P20138 18-364 limits assumed): as the sequence (P20138 18-364 limits assumed) above
T6 sequence (P20138 18-364 limits assumed): as above
T5 sequence (chain, as listed by the source limits assumed): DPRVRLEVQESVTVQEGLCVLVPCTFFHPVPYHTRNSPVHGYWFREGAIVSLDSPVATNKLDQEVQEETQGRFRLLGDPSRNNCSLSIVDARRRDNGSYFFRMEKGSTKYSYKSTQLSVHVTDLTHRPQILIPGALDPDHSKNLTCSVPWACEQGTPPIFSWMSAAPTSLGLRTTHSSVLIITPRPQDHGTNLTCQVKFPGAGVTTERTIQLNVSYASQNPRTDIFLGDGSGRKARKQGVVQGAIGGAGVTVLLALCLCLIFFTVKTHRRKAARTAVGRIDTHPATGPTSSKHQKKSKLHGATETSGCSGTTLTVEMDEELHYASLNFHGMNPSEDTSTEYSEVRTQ
T7 sequence (P20138 18-259 limits assumed): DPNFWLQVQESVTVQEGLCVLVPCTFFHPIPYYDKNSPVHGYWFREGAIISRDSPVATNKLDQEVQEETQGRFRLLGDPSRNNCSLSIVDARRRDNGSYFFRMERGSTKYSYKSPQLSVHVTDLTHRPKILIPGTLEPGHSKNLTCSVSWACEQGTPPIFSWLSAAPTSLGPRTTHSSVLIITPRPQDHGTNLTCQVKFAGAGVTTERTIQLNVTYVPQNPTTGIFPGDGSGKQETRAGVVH
cynomologous (cyno) rCD33 (cyno), sequence (chain, as listed by the source limits assumed): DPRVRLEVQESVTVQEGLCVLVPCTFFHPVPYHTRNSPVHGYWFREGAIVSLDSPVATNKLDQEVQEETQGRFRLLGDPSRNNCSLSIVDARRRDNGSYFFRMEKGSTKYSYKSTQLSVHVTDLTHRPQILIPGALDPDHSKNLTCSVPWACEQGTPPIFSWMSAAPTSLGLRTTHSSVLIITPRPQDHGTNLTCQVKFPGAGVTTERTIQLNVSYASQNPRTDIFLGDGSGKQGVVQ

B1: C33B782 (antibody, human IgG4 S228P, lambda, F234A L235A)
heavy: not shown
light: SYELTQPPSVSVSPGQTASITCSGNKLGAKFASWYQQKPGQSPVLVIYQDNKRPSGIPERFSGSNSGNTATLTISGTQAVDEADYYCQAWDSSTVVFGGGTKLTVLGQPKAAPSVTLFPPSSEELQANKATLVCLISDFYPGAVTVAWKADSSPVKAGVETTTPSKQSNNKYAASSYLSLTPEQWKSHRSYSCQVTHEGSTVEKTVAPTECS
notes: huIgG4 PAA; OMNIRat campaign; also called C33H72/C33L40
For B1, the binding result with Human CD33-C2-HSA [1] and in the test with Human CD33-V-HSA [2] was “no binding” each time.

B2: C33B778 (antibody, human IgG4 S228P, lambda, F234A L235A)
heavy: not shown
light: SYELTQPPSVSVSPGQTASITCSGDKLGDKYACWYQQKPGQSPVLVIYQDGKRPSGIPERFSGSNFGNKATLTISGTQAMDEADYYCQAWDRNTVVFGGGTKLTVLGQPKAAPSVTLFPPSSEELQANKATLVCLISDFYPGAVTVAWKADSSPVKAGVETTTPSKQSNNKYAASSYLSLTPEQWKSHRSYSCQVTHEGSTVEKTVAPTECS
notes: huIgG4 PAA; OMNIRat campaign; also called C33H66/C33L60
B2: the binding result with Human CD33-V-HSA [2] is on record as “no binding”.

B3: C33B782 (antibody, human IgG4 S228P, lambda, F234A L235A)
heavy: not shown
light: SYELTQPPSVSVSPGQTASITCSGNKLGAKFASWYQQKPGQSPVLVIYQDNKRPSGIPERFSGSNSGNTATLTISGTQAVDEADYYCQAWDSSTVVFGGGTKLTVLGQPKAAPSVTLFPPSSEELQANKATLVCLISDFYPGAVTVAWKADSSPVKAGVETTTPSKQSNNKYAASSYLSLTPEQWKSHRSYSCQVTHEGSTVEKTVAPTECS
notes: huIgG4 PAA; HC C33H72, LC C33L40 (same V region as C33B77); also called C33F82
Take B3: the binding result with Human CD33-C2-HSA [3] and in the test with Human CD33-V-HSA [4] was “no binding” each time.

B4: C33B778 (antibody, human IgG4 S228P, lambda, F234A L235A)
heavy: not shown
light: SYELTQPPSVSVSPGQTASITCSGDKLGDKYACWYQQKPGQSPVLVIYQDGKRPSGIPERFSGSNFGNKATLTISGTQAMDEADYYCQAWDRNTVVFGGGTKLTVLGQPKAAPSVTLFPPSSEELQANKATLVCLISDFYPGAVTVAWKADSSPVKAGVETTTPSKQSNNKYAASSYLSLTPEQWKSHRSYSCQVTHEGSTVEKTVAPTECS
notes: huIgG4 PAA; HC C33H66, LC C33L60 (same V region as C33B73); also called C33F78
As to B4, in the test with Human CD33-V-HSA [4], the binding result is “no binding”.

B5: C33B792 (antibody, human IgG4 S228P, lambda, F234A L235A)
heavy: not shown
light: SYELTQPPSVSVSPGQTASITCSGDKLGNKYASWYQQKPGQSPVLVIYQDTKRPSGIPERVSGSNSGNTATLTISGTQAMDEADYHCQAWDSSTVVFGGGTKLTVLGQPKAAPSVTLFPPSSEELQANKATLVCLISDFYPGAVTVAWKADSSPVKAGVETTTPSKQSNNKYAASSYLSLTPEQWKSHRSYSCQVTHEGSTVEKTVAPTECS
notes: huIgG4 PAA; HC C33H87, LC C33L35 (same V region as C33B87); also called C33F92
Turning to B5, the binding result with Human CD33-C2-HSA [3] and in the test with Human CD33-V-HSA [4] was “no binding” in each case.

B6: C33B792 (antibody, human IgG4 S228P, lambda, F234A L235A)
heavy: not shown
light: SYELTQPPSVSVSPGQTASITCSGDKLGNKYASWYQQKPGQSPVLVIYQDTKRPSGIPERVSGSNSGNTATLTISGTQAMDEADYHCQAWDSSTVVFGGGTKLTVLGQPKAAPSVTLFPPSSEELQANKATLVCLISDFYPGAVTVAWKADSSPVKAGVETTTPSKQSNNKYAASSYLSLTPEQWKSHRSYSCQVTHEGSTVEKTVAPTECS
notes: huIgG4 PAA; OMNIRat campaign; also called C33H87/C33L35
As to B6, the binding result with Human CD33-C2-HSA [1] and with Human CD33-V-HSA [2] was “no binding” each time.

B7: C33B909 (antibody, V domains shown)
VH: EVQLVESGGGLVQPGRSLRLSCVASGFTFDDYAIHWVRQAPGKGLEWVSGLSWNGGNIGYADSVKGRFTISRDNAKNSLYLQMNSLKTEDTAFYYCTKDTPYGDYFDYWGQGTLVTVSS
VL: DIQMTQSPSSVWASVGDRVTITCRASQGISSWLAWYQQQPGKAPNLLIYRSSSLQSGVPSRFSGSGSGTDFTLTISSLQPEDFATYYCQQDNSFPYTFGQGTKLEIKR
notes: OMNIMouse campaign; also called C33H249/C33L115
Regarding B7, the binding result in test [5] and in test [6] was “no binding” each time.

B8: C3CB189 (bispecific antibody, human IgG4 S228P, kappa, lambda, F234A L235A)
heavy 1: not shown
light 1: not shown
heavy 2: QVQLQQSGPRLVRPSQTLSLTCAISGDSVFNNNAAWSWIRQSPSRGLEWLGRTYYRSKWLYDYAVSVKSRITVNPDTSRNQFTLQLNSVTPEDTALYYCARGYSSSFDYWGQGTLVTVSSASTKGPSVFPLAPCSRSTSESTAALGCLVKDYFPEPVTVSWNSGALTSGVHTFPAVLQSSGLYSLSSVVTVPSSSLGTKTYTCNVDHKPSNTKVDKRVESKYGPPCPPCPAPEAAGGPSVFLFPPKPKDTLMISRTPEVTCVVVDVSQEDPEVQFNWYVDGVEVHNAKTKPREEQFNSTYRVVSVLTVLHQDWLNGKEYKCKVSNKGLPSSIEKTISKAKGQPREPQVYTLPPSQEEMTKNQVSLTCLVKGFYPSDIAVEWESNGQPENNYKTTPPVLDSDGSFLLYSKLTVDKSRWQEGNVFSCSVMHEALHNHYTQKSLSLSLGK
light 2: QSALTQPASVSGSPGQSITISCTGTSSNIGTYKFVSWYQQHPDKAPKVLLYEVSKRPSGVSSRFSGSKSGNTASLTISGLQAEDQADYHCVSYAGSGTLLFGGGTKLTVLGQPKAAPSVTLFPPSSEELQANKATLVCLISDFYPGAVTVAWKADSSPVKAGVETTTPSKQSNNKYAASSYLSLTPEQWKSHRSYSCQVTHEGSTVEKTVAPTECS
notes: Fully human IgG4-PAA bispecific made by Fab-arm exchange; CD33 arm C33B904 (C33H252/C33L118), CD3 arm CD3B376 (CD3H219/CD3L150; F405L, R409K); also called C33B904 × CD3B376
B8: binding in [7] was put at a Kd of 0.363 nM. For the same molecule, in [8], the Kd (commonly a measure of binding affinity in units of concentration) is 0.00089 nM. Further, the Kd in the test with cyno monkey rCD3e is 43.8 nM. This molecule returned a Kd with human rCD3e of 151 nM. In test [9], the “T cell activation (CD25) in human whole blood with Kasumi-1, median EC50” value came out at 0.085 nM; the “T cell activation (CD25) in human whole blood with MOLM-13, median EC50” value stood at 0.037 nM; the “T cell activation (CD25) with KG-1 target cells, median EC50” value amounted to 0.0664 nM; the “T cell activation (CD25) with Kasumi-1 target cells, median EC50” value amounted to 0.0432 nM. Besides, in test [9], the “T cell activation (CD25) with MOLM-13 target cells, median EC50” value turned out to be 0.0283 nM; the “T cell activation (CD25) with OCI-AML3 target cells, median EC50” value amounted to 0.05 nM; the “T cell-mediated cytotoxicity of KG-1, median EC50, 6 donors, 48 h” value is 0.168 nM; the “T cell-mediated cytotoxicity of Kasumi-1, median EC50, 6 donors, 48 h” value stood at 0.05 nM. In test [9], the “T cell-mediated cytotoxicity of Kasumi-1 spiked in human whole blood, median EC50, 48 h” value came to 0.124 nM; the “T cell-mediated cytotoxicity of MOLM-13, median EC50, 6 donors, 48 h” value turned out to be 0.131 nM; the “T cell-mediated cytotoxicity of MOLM-13 spiked in human whole blood, median EC50, 48 h” value is 0.111 nM; the “T cell-mediated cytotoxicity of OCI-AML3, median EC50, 6 donors, 48 h” value is 0.183 nM. The “ex vivo cytotoxicity of CD33+ blasts in AML patient whole blood, median EC50” value in test [9] came to 0.365 nM.

B9: C33B836 (antibody, human IgG4 S228P, lambda, F234A L235A)
heavy: not shown
light: QSALTQPASVSGSPGQSITISCTGTSSDVGDYNYVSWYQQHPGKVPKLMIYDVSNRPSGVSNRFSGSMSGNTASLTISGLQAEDEADYYCSSYSSSSALEVFGGGTKLTVLGQPKAAPSVTLFPPSSEELQANKATLVCLISDFYPGAVTVAWKADSSPVKAGVETTTPSKQSNNKYAASSYLSLTPEQWKSHRSYSCQVTHEGSTVEKTVAPTECS
notes: huIgG4 PAA; HC C33H80, LC C33L73 (same V region as C33B48); also called C33F53
On to B9, for which the binding result in the test with Human CD33-C2-HSA [3] is recorded as “no binding”.

B10: C33B836 (antibody, human IgG4 S228P, lambda, F234A L235A)
heavy: not shown
light: QSALTQPASVSGSPGQSITISCTGTSSDVGDYNYVSWYQQHPGKVPKLMIYDVSNRPSGVSNRFSGSMSGNTASLTISGLQAEDEADYYCSSYSSSSALEVFGGGTKLTVLGQPKAAPSVTLFPPSSEELQANKATLVCLISDFYPGAVTVAWKADSSPVKAGVETTTPSKQSNNKYAASSYLSLTPEQWKSHRSYSCQVTHEGSTVEKTVAPTECS
notes: huIgG4 PAA; OMNIRat campaign; also called C33H80/C33L73
On to B10, for which, in the test with Human CD33-C2-HSA [1], the binding result is “no binding”.

B11: C33B937 (antibody, human IgG4 S228P, lambda, F234A L235A, V domains shown)
VH: QVQLVESGGGVVQPGRSLRLSCVASGFTFSSYGMHWVRQAPGKGLEWVAVISYDGSNKYYADSVKGRFTISRDNSKNTLYLQMNSLRAEGTAVYYCAKDFRSFDWLPPDSASYHGMDVWGQGTTVTVSS
VL: SYELTQPPSVSVSPGQTASITCSGDKLGDKYASWYQQKPGQSPVLVIYQDGKRPSGIPERFSGSNFGNKATLTISGTQAMDEADYYCQAWDRNTVVFGGGTKLTVLG
For the molecule B11, the “EC50 (nM), CD33 internalization assay (Protein A-MMAF cell viability, MOLM13)” value in the test with human CD33 came to 1.92 nM.
